Square brackets hold non-standard residues; d marks the D form. * marks the point of attachment. Hydrocinnamoyl = O=C(CCc1ccccc1)*; CH:CH‑COOEt = CCOC(=O)/C=C/*; AOrn = not defined here; Cbz = O=C(OCc1ccccc1)*
T1: schistosome legumain SmAE (Schistosoma mansoni asparaginyl endopeptidase) (Schistosoma mansoni), P09841
T1 chain: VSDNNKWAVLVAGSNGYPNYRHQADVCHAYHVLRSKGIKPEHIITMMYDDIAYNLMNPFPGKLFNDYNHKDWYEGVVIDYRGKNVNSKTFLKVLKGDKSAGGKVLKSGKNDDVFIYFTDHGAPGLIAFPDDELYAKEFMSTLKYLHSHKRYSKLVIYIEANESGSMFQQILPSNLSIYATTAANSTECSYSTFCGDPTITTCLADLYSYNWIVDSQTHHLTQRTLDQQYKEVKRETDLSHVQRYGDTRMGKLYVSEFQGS

T2: Clostripain, P09870
T2 chain: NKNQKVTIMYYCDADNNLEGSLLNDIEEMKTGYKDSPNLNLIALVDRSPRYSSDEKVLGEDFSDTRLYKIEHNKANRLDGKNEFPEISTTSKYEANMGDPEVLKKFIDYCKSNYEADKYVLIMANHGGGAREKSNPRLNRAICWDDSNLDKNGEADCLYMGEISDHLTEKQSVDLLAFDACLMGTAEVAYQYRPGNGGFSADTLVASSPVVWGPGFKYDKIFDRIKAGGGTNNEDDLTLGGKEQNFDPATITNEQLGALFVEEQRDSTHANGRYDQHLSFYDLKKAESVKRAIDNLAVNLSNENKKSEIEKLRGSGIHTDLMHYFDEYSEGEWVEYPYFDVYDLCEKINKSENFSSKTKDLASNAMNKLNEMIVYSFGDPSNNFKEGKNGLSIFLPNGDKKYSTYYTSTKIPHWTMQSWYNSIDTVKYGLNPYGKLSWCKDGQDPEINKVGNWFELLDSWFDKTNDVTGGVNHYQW


Legend:
Test in all cases: cell-based or functional assay
[1] = biological target: T1, schistosome legumain SmAE (Schistosoma …)
[2] = biological target: Gingipain K
[3] = biological target: Gingipain R
[4] = biological target: T2, Clostripain, P09870

IC50 [1] [nM]	k2 [2] [M⁻¹ s⁻¹]	k2 [3] [M⁻¹ s⁻¹]	k2 [4] [M⁻¹ s⁻¹]	Binder
900	–	–	–	AAN (modifications not checked) [Cbz-Ala-Ala-AAsn-CH═CH-CON(CH2-2-furyl)2]
–	632000	18	–	Hydrocinnamoyl-Ala-[AOrn]-{CH:CH‑COOEt} (reading uncertain) [PhPr-Ala-AOrn-CH═CH-COOEt]
> 2000	–	–	–	AAN (modifications not checked) [Cbz-Ala-Ala-AAsn-CH═CH-3-Py]
70	–	–	–	AAN (modifications not checked) [Cbz-Ala-Ala-AAsn-CH═CH-CO-tetrahydroquinoline]
90	–	–	–	AAN (modifications not checked) [Cbz-Ala-Ala-AAsn-CH═CH-CON(Bzl-4-OMe)Bzl]
750	–	–	–	AAN (modifications not checked) [Cbz-Ala-Ala-AAsn-CH═CH-CO-MePhe-N(CH3)CH2CH2Ph]
700	–	–	–	AAN (modifications not checked) [Cbz-Ala-Ala-AAsn-CH═CH-CONHPh]
60	–	–	–	AAN (modifications not checked) [Cbz-Ala-Ala-AAsn-CH═CH-CON(CH3)Ph]
38	–	–	–	AAN (modifications not checked) [Cbz-Ala-Ala-AAsn-CH═CH-COOBzl]
70	–	–	–	Cbz-Ala-Ala-[AAsn]-{CH:CH‑CO‑indoline} [Cbz-Ala-Ala-AAsn-CH═CH-CO-indoline]
550	–	–	–	AAN (modifications not checked) [Cbz-Ala-Ala-AAsn-CH═CH-CON(nBu)2]
31	–	–	–	Cbz-Ala-Ala-[AAsn]-{CH:CH‑COOEt} [Cbz-Ala-Ala-AAsn-CH═CH-COOEt]
–	2.13e+06	65	20000	LK (modifications not checked) [PhPr-Leu-ALys-CH═CH-CON(CH2Ph)2]
–	–	804000	474000	LR (modifications not checked) [PhPr-Leu-AArg-CH═CH-CON(CH2Ph)2]
45	–	–	–	Cbz-Ala-Ala-[AAsn]-{CH:CH‑CON(Bzl)2} [Cbz-Ala-Ala-AAsn-CH═CH-CON(Bzl)2]
–	927000	32	788	Hydrocinnamoyl-Leu-[AOrn]-{CH:CH‑COOEt} (reading uncertain; also: printed as PhPr-Leu-AOrn-CH═CH-COOEt) [PhPr-Leu-AOrn-CH═CH-COOEt]
–	1.36e+06	79	6000	LK (modifications not checked) [PhPr-Leu-ALys-CH═CH-CON(Me)CH2Ph]
–	–	555000	287000	LR (modifications not checked) [PhPr-Leu-AArg-CH═CH-CONHCH2Ph]
70	–	–	–	AAN (modifications not checked) [Cbz-Ala-Ala-AAsn-CH═CH-CON(Bzl)Ph]
1000	–	–	–	AAN (modifications not checked) [Cbz-Ala-Ala-AAsn-CH═CH-CONHBzl]
70	–	–	–	Cbz-Ala-Ala-[AAsn]-{CH:CH‑CON(Bzl)‑2‑CH2‑Napth} [Cbz-Ala-Ala-AAsn-CH═CH-CON(Bzl)-2-CH2-Napth]
62	–	–	–	Cbz-Ala-Ala-[AAsn]-{CH:CH‑CON(Bzl)‑1‑CH2‑Napth} [Cbz-Ala-Ala-AAsn-CH═CH-CON(Bzl)-1-CH2-Napth]

IC50 [1] [nM]	k2 [2] [M⁻¹ s⁻¹]	k2 [3] [M⁻¹ s⁻¹]	k2 [4] [M⁻¹ s⁻¹]	Binder
–	3.28e+06	289	40800	LK (modifications not checked) [PhPr-Leu-ALys-CH═CH-COOEt]
–	811000	98	17500	LK (modifications not checked) [PhPr-Leu-ALys-CH═CH-CON(Bzl)CH2-2-naphthyl]
> 2000	–	–	–	AAN (modifications not checked) [Cbz-Ala-Ala-AAsn-CH═CH-2-furyl]
–	801000	75	13800	LK (modifications not checked) [PhPr-Leu-ALys-CH═CH-CON(Bzl)-p-CH2C6H4F]
–	1580	–	69600	LR (modifications not checked) [PhPr-Leu-AArg-CH═CH-COOEt]
–	252000	73	326	LK (modifications not checked) [PhPr-Leu-ALys-CH═CH-CON(4H-quinoline)]
1000	–	–	–	AAN (modifications not checked) [Cbz-Ala-Ala-AAsn-CH═CH-CO-Pip]
60	–	–	–	AAN (modifications not checked) [Cbz-Ala-Ala-AAsn-CH═CH-CON(Bzl-4-F)Bzl]
–	975000	576	639	LK (modifications not checked) [PhPr-Leu-ALys-CH═CH-CON(Me)CH2-1-naphthyl]
–	61600	541	541	Hydrocinnamoyl-Leu-[AOrn]-{CH:CH‑CON(CH2Ph)2} (reading uncertain) [PhPr-Leu-AOrn-CH═CH-CON(CH2Ph)2]
300	–	–	–	AAN (modifications not checked) [Cbz-Ala-Ala-AAsn-CH═CH-CO-isoindoline]
10	–	–	–	AAN (modifications not checked) [Biotinyl-Ala-Ala-AAsn-CH═CH-COOEt]
750	–	–	–	AAN (modifications not checked) [Cbz-Ala-Ala-AAsn-CH═CH-CO-(4-Ph-Py)]
600	–	–	–	Cbz-Ala-Ala-[AAsn]-{CH:CH‑CONHCH2CH2Ph} [Cbz-Ala-Ala-AAsn-CH═CH-CONHCH2CH2Ph]
–	236000	20	1050	LK (modifications not checked) [PhPr-Leu-ALys-CH═CH-CONHCH2Ph]
200	–	–	–	AAN (modifications not checked) [Cbz-Ala-Ala-AAsn-CH═CH-CO-tetrahydroisoquinoline]
–	24700	71	–	Hydrocinnamoyl-Leu-[AOrn]-{CH:CH‑CONHCH2Ph} (reading uncertain) [PhPr-Leu-AOrn-CH═CH-CONHCH2Ph]
55	–	–	–	Cbz-Ala-Ala-[AAsn]-{CH:CH‑CON(CH3)Bzl} [Cbz-Ala-Ala-AAsn-CH═CH-CON(CH3)Bzl]
–	2.51e+06	632	20500	LK (modifications not checked) [PhPr-Leu-ALys-CH═CH-COOCH2Ph]
800	–	–	–	AAN (modifications not checked) [Cbz-Ala-Ala-AAsn-CH═CH-CONH-Bzl-4-F]
–	1.89e+06	214	2250	LK (modifications not checked) [PhPr-Leu-ALys-CH═CH-CON(CH2-1-naphthyl2]
600	–	–	–	AAN (modifications not checked) [Cbz-Ala-Ala-AAsn-CH═CH-CON(CH3)CH2CH2Ph]

— patent publication US20050256058A1
